Laboratory results reported in the supplement of paper PMC9112550, “Optimization of the antimicrobial peptide Bac7 by deep mutational scanning” (BMC Biology, 2022).

tested on: Escherichia coli TOP10; test: shrunken log2 fold change of peptide-encoding DNA abundance (4.5 h post-induction vs induction); higher = less antimicrobial activity (less host growth inhibition); conditions: time post-induction: 4.5 h; library: site-saturation at positions 5, 18, 19, 20
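Also: peptides expressed intracellularly from a pBAD plasmid library in pooled LB shake-flask culture, induced with 0.3% L-arabinose, DNA abundance read by NGS, three biological replicates, DESeq2 with apeglm shrinkage.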

| Sequence | shrunken log2 fold change |
| --- | --- |
| RRIRGRPPRLPRPRPRPPIEPRP | 0.196 |
| RRIRGRPPRLPRPRPRPPNGPRP | 0.534 |
| RRIRGRPPRLPRPRPRPPNLPRP | 0.463 |
| RRIRGRPPRLPRPRPRPPQKPRP | 1.35 |
| RRIRGRPPRLPRPRPRPPQPPRP | 1.03 |
| RRIRGRPPRLPRPRPRPPQRPRP | 0.97 |
| RRIRGRPPRLPRPRPRPPRPPRP | 1.08 |
| RRIRGRPPRLPRPRPRPPSCPRP | 0.654 |
| RRIRGRPPRLPRPRPRPPSDPRP | 1.05 |
| RRIRGRPPRLPRPRPRPPTAPRP | 1.01 |
| RRIRGRPPRLPRPRPRPPTMPRP | 0.429 |
| RRIRGRPPRLPRPRPRPPVMPRP | 0.333 |
| RRIRGRPPRLPRPRPRPPVWPRP | 0.861 |
| RRIRGRPPRLPRPRPRPPWCPRP | 0.491 |
| RRIRGRPPRLPRPRPRPPYWPRP | 0.355 |
| RRIRGRPPRLPRPRPRPQCNPRP | 0.203 |
| RRIRGRPPRLPRPRPRPQCYPRP | -0.0337 |
| RRIRGRPPRLPRPRPRPQDHPRP | 0.254 |
| RRIRGRPPRLPRPRPRPQEMPRP | 0.0954 |
| RRIRGRPPRLPRPRPRPQFIPRP | 0.0876 |
| RRIRGRPPRLPRPRPRPQICPRP | 0.156 |
| RRIRGRPPRLPRPRPRPQIIPRP | 0.203 |
| RRIRGRPPRLPRPRPRPQIQPRP | 0.0796 |
| RRIRGRPPRLPRPRPRPQKDPRP | 0.346 |
| RRIRGRPPRLPRPRPRPQKFPRP | -0.0494 |

| Sequence | shrunken log2 fold change |
| --- | --- |
| RRIRGRPPRLPRPRPRPQLIPRP | 0.139 |
| RRIRGRPPRLPRPRPRPQLKPRP | 0.404 |
| RRIRGRPPRLPRPRPRPQLQPRP | 0.577 |
| RRIRGRPPRLPRPRPRPQLVPRP | 0.0859 |
| RRIRGRPPRLPRPRPRPQMAPRP | 0.923 |
| RRIRGRPPRLPRPRPRPQMDPRP | 0.291 |
| RRIRGRPPRLPRPRPRPQNGPRP | 3.22 |
| RRIRGRPPRLPRPRPRPQNNPRP | -0.0456 |
| RRIRGRPPRLPRPRPRPQPCPRP | 0.466 |
| RRIRGRPPRLPRPRPRPQPEPRP | 0.704 |
| RRIRGRPPRLPRPRPRPQPNPRP | 0.679 |
| RRIRGRPPRLPRPRPRPQPQPRP | 0.706 |
| RRIRGRPPRLPRPRPRPQQEPRP | 0.0132 |
| RRIRGRPPRLPRPRPRPQRMPRP | 0.307 |
| RRIRGRPPRLPRPRPRPQSCPRP | 0.195 |
| RRIRGRPPRLPRPRPRPQSMPRP | 0.276 |
| RRIRGRPPRLPRPRPRPQSSPRP | 0.000815 |
| RRIRGRPPRLPRPRPRPQTAPRP | 0.205 |
| RRIRGRPPRLPRPRPRPQVSPRP | 0.0928 |
| RRIRGRPPRLPRPRPRPQWIPRP | 0.518 |
| RRIRGRPPRLPRPRPRPQWYPRP | 0.25 |
| RRIRGRPPRLPRPRPRPQYWPRP | 0.122 |
| RRIRGRPPRLPRPRPRPRHHPRP | 2.5 |
| RRIRGRPPRLPRPRPRPRIDPRP | 0.731 |
| RRIRGRPPRLPRPRPRPRKYPRP | 0.0397 |

| Sequence | shrunken log2 fold change |
| --- | --- |
| RRIRGRPPRLPRPRPRPRMAPRP | 1.06 |
| RRIRGRPPRLPRPRPRPRMCPRP | 0.197 |
| RRIRGRPPRLPRPRPRPRMRPRP | 1.38 |
| RRIRGRPPRLPRPRPRPRMTPRP | 1.26 |
| RRIRGRPPRLPRPRPRPRMVPRP | 0.643 |
| RRIRGRPPRLPRPRPRPRNGPRP | 0.343 |
| RRIRGRPPRLPRPRPRPRNKPRP | 0.765 |
| RRIRGRPPRLPRPRPRPRNSPRP | 0.114 |
| RRIRGRPPRLPRPRPRPRPEPRP | 0.667 |
| RRIRGRPPRLPRPRPRPRQFPRP | 0.354 |
| RRIRGRPPRLPRPRPRPRQGPRP | 0.654 |
| RRIRGRPPRLPRPRPRPRQYPRP | -0.0954 |
| RRIRGRPPRLPRPRPRPRTNPRP | 0.588 |
| RRIRGRPPRLPRPRPRPRWCPRP | 0.351 |
| RRIRGRPPRLPRPRPRPSCFPRP | 0.504 |
| RRIRGRPPRLPRPRPRPSDYPRP | 0.0378 |
| RRIRGRPPRLPRPRPRPSEAPRP | 0.848 |
| RRIRGRPPRLPRPRPRPSFAPRP | 0.723 |
| RRIRGRPPRLPRPRPRPSFPPRP | -0.0674 |
| RRIRGRPPRLPRPRPRPSIEPRP | 0.36 |
| RRIRGRPPRLPRPRPRPSKGPRP | -0.403 |
| RRIRGRPPRLPRPRPRPSKRPRP | 0.231 |
| RRIRGRPPRLPRPRPRPSMAPRP | 0.749 |
| RRIRGRPPRLPRPRPRPSMCPRP | 0.37 |
| RRIRGRPPRLPRPRPRPSNDPRP | 0.702 |
